This test concerns the target T1, yeast Smt3 (Smt3 6xHis) (yeast, UniProt Q12306 1-101 = SUMO).
T1 construct: Smt3 (SUMO), yeast; Uniformly 13C,15N labelled for the NMR experiments; also called SUMO; U-[13C,15N]; Smt3; source: E. coli BL21 (DE3)pLysS, purified (Ni-NTA)
Description: ITC; 2 mM peptide in the syringe, 150 μM or 300 μM Smt3 in the cell; 20 mM NaPi 100 mM NaCl pH 7.5, 10% DMSO, 25°C; single binding site model. As to conditions: both partners purified.

T1 sequence (Q12306 whole entry): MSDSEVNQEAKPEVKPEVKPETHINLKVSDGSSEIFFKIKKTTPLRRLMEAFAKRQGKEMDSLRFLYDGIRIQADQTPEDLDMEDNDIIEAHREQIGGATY

Molecule ENDIIMVSTDE [synthetic Mre11-SIM3 peptide, wild type] returned a Kd of 20 ± 10 µM.

The Kd is the equilibrium constant for the complex coming apart.

The values are drawn from publication doi:10.1101/2025.07.08.663703, “Recruitment of Mre11 to recombination sites during meiosis” (bioRxiv, 2025).
